Publication PMC10563445, “Extracellular microRNA 130b‐3p inhibits eCIRP‐induced inflammation” (EMBO Reports, 2019)
One block for each binder: values may come before it.

Tests used:
[1] = biological target: T1, rmCIRP (recombinant murine cold-inducible RNA-binding protein) (mouse, UniProt P60824 1-172); assay: SPR; RNA immobilized on SA chip; SPR (BIAcore T200), 1X HBS-EP running buffer; rmCIRP 7.8-500 nM over RNA; pH and temperature not stated; settings: single strand
T1 sequence: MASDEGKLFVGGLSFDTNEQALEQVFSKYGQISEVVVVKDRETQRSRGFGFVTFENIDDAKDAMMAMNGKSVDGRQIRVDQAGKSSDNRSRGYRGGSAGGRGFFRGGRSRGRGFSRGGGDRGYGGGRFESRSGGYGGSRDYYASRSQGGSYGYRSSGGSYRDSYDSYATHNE

TLR4/MD2 complex = TLR4/MD2 complex (human, UniProt O00206;Q9Y6Y9 24-631;19-160); assay: SPR; RNA analyte 31.25-1000 nM, no rmCIRP; SPR (BIAcore T200), 1X HBS-EP running buffer; rmCIRP 7.8-500 nM over RNA; pH and temperature not stated; settings: protein: commercial
human TLR4/MD2 complex [2] = biological target: T2, human TLR4/MD2 complex (human, UniProt O00206 24-631; Q9Y6Y9 19-160); assay: SPR; BIAcore T200; human TLR4/MD2 complex immobilised on a CM5 chip; rmCIRP (31.25-500 nM) injected alone as analyte; running buffer 1X HBS-EP; 1:1 binding model; settings: both partners purified
T2 construct: Toll-like receptor 4 (TLR4), human, recombinant, in the bought TLR4/MD2 complex; Myeloid differentiation factor 2 (MD2), human, recombinant, in the bought TLR4/MD2 complex; also called TLR4 and myeloid differentiation factor 2 (MD2) complex; source: bought: R&D Systems

human TLR4/MD2 complex [3] = biological target: T2, human TLR4/MD2 complex; assay: SPR; BIAcore T200; human TLR4/MD2 complex immobilised on a CM5 chip; rmCIRP (31.25-1,000 nM) incubated with a constant 100 nM miRNA 130b-3p mimic and injected as analyte; 1X HBS-EP; 1:1 binding model; settings: both partners purified
human TLR4/MD2 complex [4] = biological target: T2, human TLR4/MD2 complex; assay: SPR; BIAcore T200; human TLR4/MD2 complex immobilised on a CM5 chip; rmCIRP (31.25-1,000 nM) incubated with a constant 50 nM miRNA 130b-3p mimic and injected as analyte; 1X HBS-EP; 1:1 binding model; settings: both partners purified
[5] = biological target: T1, rmCIRP (recombinant murine …); assay: SPR; RNA immobilized on SA chip; text misprints 8.4 x 10^8 M; SPR (BIAcore T200), 1X HBS-EP running buffer; rmCIRP 7.8-500 nM over RNA; pH and temperature not stated; settings: single strand

T2 sequence (O00206 24-631, chain 1 of 2): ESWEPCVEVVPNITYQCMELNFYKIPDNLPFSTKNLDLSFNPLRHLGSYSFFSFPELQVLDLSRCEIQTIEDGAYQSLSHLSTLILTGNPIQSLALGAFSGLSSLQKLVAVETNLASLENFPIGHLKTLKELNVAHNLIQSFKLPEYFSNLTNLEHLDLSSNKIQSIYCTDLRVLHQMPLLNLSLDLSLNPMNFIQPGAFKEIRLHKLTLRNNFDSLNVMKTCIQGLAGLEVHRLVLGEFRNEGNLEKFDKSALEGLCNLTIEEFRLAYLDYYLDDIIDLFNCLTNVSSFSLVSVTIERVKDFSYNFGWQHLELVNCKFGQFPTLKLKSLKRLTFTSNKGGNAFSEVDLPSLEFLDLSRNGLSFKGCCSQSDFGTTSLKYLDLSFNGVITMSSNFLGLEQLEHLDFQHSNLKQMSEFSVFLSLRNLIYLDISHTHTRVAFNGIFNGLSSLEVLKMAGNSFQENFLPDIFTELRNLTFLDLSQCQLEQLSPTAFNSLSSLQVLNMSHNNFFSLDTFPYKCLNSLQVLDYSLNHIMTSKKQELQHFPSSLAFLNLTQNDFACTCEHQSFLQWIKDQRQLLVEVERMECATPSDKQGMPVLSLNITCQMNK
T2 sequence (Q9Y6Y9 19-160, chain 2 of 2): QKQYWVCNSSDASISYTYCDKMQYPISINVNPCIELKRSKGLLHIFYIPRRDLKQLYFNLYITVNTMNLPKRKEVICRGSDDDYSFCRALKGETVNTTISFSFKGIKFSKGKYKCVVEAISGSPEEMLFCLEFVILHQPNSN
Chain of TLR4/MD2 complex (O00206 24-631, chain 1 of 2): as the sequence (O00206 24-631, chain 1 of 2) above
Chain of TLR4/MD2 complex (Q9Y6Y9 19-160, chain 2 of 2): as the sequence (Q9Y6Y9 19-160, chain 2 of 2) above

Binder: CAGUGGUUUUACCCUAUGGUAG (ssRNA) [miRNA 140 mimic (140-5p), biotinylated]
Kd [1]: 160 ± 1.9 nM

Binder: CAGUGCAAUGAUGAAAGGGCAU (ssRNA) [miRNA 130b-3p mimic, biotinylated]
Kd [1]: 50.1 ± 3 nM

Binder: CAGUGCAAUGAUGAAAGGGCAU (ssRNA) [miRNA 130b-3p mimic (analyte)]
binding result (TLR4/MD2 complex): no binding

Kd (human TLR4/MD2 complex [2]): 116.5 ± 0.8 nM
KD with 100 nM miRNA 130b-3p mimic (human TLR4/MD2 complex [3]): 40000 nM
KD with 50 nM miRNA 130b-3p mimic (human TLR4/MD2 complex [4]): 420 nM
B1: recombinant murine cold-inducible RNA-binding protein (natural protein, mouse, UniProt P60824 1-172, looked up)
chain: MASDEGKLFVGGLSFDTNEQALEQVFSKYGQISEVVVVKDRETQRSRGFGFVTFENIDDAKDAMMAMNGKSVDGRQIRVDQAGKSSDNRSRGYRGGSAGGRGFFRGGRSRGRGFSRGGGDRGYGGGRFESRSGGYGGSRDYYASRSQGGSYGYRSSGGSYRDSYDSYATHNE
notes: also called rmCIRP; recombinant mouse (rm) CIRP

Binder: UUCACAGUGGCUAAGUUCUGC (ssRNA) [miRNA 27b mimic (27b-3p), biotinylated]
Kd [5]: 83.5 ± 3.1 nM
